Values belong to the binder of their own block, whether it stands above or below them.
Legend:
human CD19 [1] = target: T1, human CD19 (human, UniProt P15391 20-556); assay: FACS on Ramos cells, Scatchard analysis
T1 construct: whole, on cells; also called Cluster of Differentiation 19; hPro1
T1 sequence (looked up): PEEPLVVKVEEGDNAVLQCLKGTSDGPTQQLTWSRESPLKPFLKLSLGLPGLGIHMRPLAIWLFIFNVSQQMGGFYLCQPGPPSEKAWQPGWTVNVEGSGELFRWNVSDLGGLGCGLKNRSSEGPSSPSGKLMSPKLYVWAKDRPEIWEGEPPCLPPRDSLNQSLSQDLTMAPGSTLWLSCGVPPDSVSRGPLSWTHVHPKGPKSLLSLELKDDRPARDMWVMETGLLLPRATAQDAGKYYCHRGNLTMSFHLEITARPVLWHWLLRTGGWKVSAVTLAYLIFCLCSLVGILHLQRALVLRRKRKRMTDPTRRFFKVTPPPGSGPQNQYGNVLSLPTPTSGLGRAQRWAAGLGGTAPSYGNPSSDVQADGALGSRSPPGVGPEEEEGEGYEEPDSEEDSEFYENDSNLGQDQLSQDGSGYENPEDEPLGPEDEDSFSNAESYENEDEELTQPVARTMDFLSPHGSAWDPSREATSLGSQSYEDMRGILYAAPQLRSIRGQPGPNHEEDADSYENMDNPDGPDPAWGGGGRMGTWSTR
Procedure: KD was calculated using Scatchard Analysis.

human CD19 [2] = target: T1, human CD19; assay: cell-based or functional assay
human CD19 [3] = target: T1, human CD19; assay: flow cytometry on Ramos cells
Procedure: (§1) The Ramos cells were plated in 96-well U-bottom plates (BD) at a density of 1×10⁵ cells/well. The purified antibody were serially diluted in the staining buffer (1×PBS/1% BSA) and incubated with cells for 1 hr at 4° C. The cells were then washed twice with staining buffer (BSA/1×PBS). […] The cells were then washed twice and re-suspended in 100 μL staining buffer. The fluorescence intensity was measured by flow cytometry (BD Canto II) and analyzed by FlowJo.
Binding activity of the selected subclones were tested on Ramos cell by flow cytometry (FIG. 4).

cynomolgus monkey CD19 = target: T2, cynomolgus monkey CD19 (cynomolgus monkey, UniProt A0A2K5W8L9 20-557); assay: flow cytometry on cynomolgus CD19 transfected CHO-K1 cells
T2 construct: whole, on cells; also called cyno CD19; cPro1
T2 sequence: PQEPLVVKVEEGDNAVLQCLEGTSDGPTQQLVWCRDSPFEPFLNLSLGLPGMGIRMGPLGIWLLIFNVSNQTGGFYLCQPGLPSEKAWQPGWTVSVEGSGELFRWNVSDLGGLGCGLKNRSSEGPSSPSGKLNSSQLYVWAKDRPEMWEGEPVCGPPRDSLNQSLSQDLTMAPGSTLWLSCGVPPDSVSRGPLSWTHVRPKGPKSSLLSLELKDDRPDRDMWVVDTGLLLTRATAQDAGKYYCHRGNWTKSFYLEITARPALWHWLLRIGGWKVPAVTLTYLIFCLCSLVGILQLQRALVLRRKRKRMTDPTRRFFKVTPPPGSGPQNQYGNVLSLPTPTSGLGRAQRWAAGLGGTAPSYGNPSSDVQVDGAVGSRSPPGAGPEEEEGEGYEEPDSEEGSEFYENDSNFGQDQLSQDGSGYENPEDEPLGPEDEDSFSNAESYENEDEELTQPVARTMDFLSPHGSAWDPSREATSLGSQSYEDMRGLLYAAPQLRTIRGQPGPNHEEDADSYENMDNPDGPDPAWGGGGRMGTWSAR
Procedure: as §1, with “cynomolgus CD19 transfected CHO-K1” for “Ramos”
The binding activity to cynomogus monkey CD19 of candidate antibodies was evaluated using cynomolgus monkey CD19 transfected CHO-K1 cell line (FIG. 5).

human CD19 [4] = target: T1, human CD19; assay: flow cytometry on CD19 transfected CHO-K1 cells, Scatchard analysis
Procedure: The CD19 transfected CHO-K1 cells or Ramos cells were plated in a 96-well plates (BD) at a density of 5×10⁴ cells/well. Antibodies to be tested were serially diluted in the staining buffer (1×PBS/1% BSA) and incubated with cells at 4° C. for 1 hr.
The affinity of selected candidate antibodies were tested on CD19 transfected CHO-K1 cell by flow cytometry.

Kd (human CD19 [1]): 0.25 nM
B1: WBP7011-4.87.6-z1-IgG1k (N-S) (antibody, V domains shown)
VH: QVQLVQSGAEVKKPGASVKVSCKASGYAFSTYWMNWVRQAPGQGLEWMGQIYPGDDDTKYSGKFKGRVTITADKSTSTAYMELSSLRSEDTAVYYCARRYFRYDYWYSDVWGQGTTVTVSS
VL: DIQMTQSPSSLSASVGDRVTITCRASQDISNYLNWYQQKPGKVPKLLIYYTSRLHSGVPSRFSGSGSGTDFTLTISSLQPEDVATYYCHQGNTLPLTFGQGTKLEIK
notes: human IgG1, kappa by its name

EC50 (human CD19 [3]): 0.1 nM
EC50 (cynomolgus monkey CD19): 0.285 nM
Kd (human CD19 [4]): 0.0955 nM
B2: WBP7011-4.87.6 (antibody, V domains shown)
VH: QVQLQQSGAELVRPGSSVKISCKASGYAFSTYWMNWVKQRPGQGLEWIGQIYPGDDDTKYNGKFKGKASLTADKSSSTAYMQLISLTSEDSAVYFCARRYFRYDYWYSDVWGAGTTVTVTS
VL: DIQMTQTTSSLSASLGDRVTISCRASQDISNYLNWYQQKPDGTVKLLIYYTSRLHSGVPARFSGSGSGTDYSLTISNLEQEDIATYFCHQGNTLPLTFGAGTKLELK
EC50 of cell viability, Fab-Zap assay on Ramos cells (internalization) (human CD19 [2]): 0.0085 nM

Kd (human CD19 [1]): 0.23 nM
B3: WBP7011-4.34.11-z1-m5-IgG1k (antibody, V domains shown)
VH: QVQLVQSGAEVKKPGSSVKVSCKASGYTFTDYVIHWVRQAPGQGLEWMGYFNPYNDGTEYNEKFKARVTITADKSTSTAYMELSSLRSEDTAVYYCARGPYYYGSSPFDYWGQGTTVTVSS
VL: DIVMTQTPLSLPVTPGEPASISCRSSQSLENSNHNTYINWYLQKPGQSPQLLIYRVSKRFSGVPDRFSGSGSGTDFTLKISRVEAEDVGVYYCHQVTHVPYTFGQGTKLEIK
notes: human IgG1, kappa by its name

Reference: patent publication US20200289563A1 (WUXI BIOLOGICS IRELAND, published 2020)
